Assay results taken from patent US20030171559A1 (Amgen, published 2003).
Where a chain is given by its changes, count along the chain named.

T1: G-CSF receptor (natural G-CSF receptor, found on hematopoietic cells) (mouse (bone marrow cells of Balb C …, UniProt P40223 26-837))
T1 sequence (looked up): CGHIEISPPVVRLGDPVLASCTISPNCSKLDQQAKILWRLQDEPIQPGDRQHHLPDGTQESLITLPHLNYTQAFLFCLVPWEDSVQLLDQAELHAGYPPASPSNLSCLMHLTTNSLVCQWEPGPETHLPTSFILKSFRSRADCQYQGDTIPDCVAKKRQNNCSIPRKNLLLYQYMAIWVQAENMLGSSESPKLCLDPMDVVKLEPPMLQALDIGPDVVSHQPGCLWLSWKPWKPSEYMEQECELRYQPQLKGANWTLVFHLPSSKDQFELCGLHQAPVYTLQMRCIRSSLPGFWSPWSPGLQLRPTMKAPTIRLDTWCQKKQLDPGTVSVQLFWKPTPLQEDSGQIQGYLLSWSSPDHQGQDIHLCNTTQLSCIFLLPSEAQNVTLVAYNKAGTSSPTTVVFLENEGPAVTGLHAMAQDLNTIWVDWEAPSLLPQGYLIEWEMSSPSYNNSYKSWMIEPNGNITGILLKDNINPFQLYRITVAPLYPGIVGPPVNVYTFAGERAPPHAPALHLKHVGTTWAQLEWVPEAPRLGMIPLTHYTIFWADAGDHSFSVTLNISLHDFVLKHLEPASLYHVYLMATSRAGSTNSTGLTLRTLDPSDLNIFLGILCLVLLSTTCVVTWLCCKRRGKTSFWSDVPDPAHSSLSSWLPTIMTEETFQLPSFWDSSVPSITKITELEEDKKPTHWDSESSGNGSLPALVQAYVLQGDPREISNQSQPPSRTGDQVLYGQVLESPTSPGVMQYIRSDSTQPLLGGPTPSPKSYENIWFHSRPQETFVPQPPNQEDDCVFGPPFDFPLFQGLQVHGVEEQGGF

B1: G-CSF analog Gln26->Ala26 (ligand)
chain: MTPLGPASSLPQSFLLKCLEQVRKIAGDGAALQEKLCATYKLCHPEELVLLGHSLGIPWAPLSSCPSQALQLAGCLSQLHSGLFLYQGLLQALEGISPELGPTLDTLQLDVADFATTIWQQMEELGMAPALQPTQGAMPAFASAFQRRAGGVLVASHLQSFLEVSYRVLRHLAQP
B2: G-CSF analog Ser13->Ala13 (ligand)
chain: B1 chain with S13A, A26Q
B3: G-CSF analog Glu20->Ala20; Ser13->Gly13 (ligand)
chain: B1 chain with S13G, E20A, A26Q
B4: G-CSF analog Lys41->Ala41 (ligand)
chain: B1 chain with A26Q, K41A
B5: G-CSF analog Arg170->Ala170 (ligand)
chain: B1 chain with A26Q, R170A
B6: G-CSF analog His44->Ala44 (ligand)
chain: B1 chain with A26Q, H44A
B7: G-CSF analog Glu124->Ala124 (ligand)
chain: B1 chain with A26Q, E124A
B8: G-CSF analog Gln174->Ala174 (ligand)
chain: B1 chain with A26Q, Q174A
B9: G-CSF analog Arg23->Ala23 (ligand)
chain: B1 chain with R23A, A26Q
B10: G-CSF analog Phe114->Val114, Thr117->Ala117 (ligand)
chain: B1 chain with A26Q, F114V, T117A
B11: G-CSF analog Arg167->Ala167 (ligand)
chain: B1 chain with A26Q, R167A
B12: G-CSF analog Asp28->Ala28 (ligand)
chain: B1 chain with A26Q, D28A
B13: G-CSF analog Asp113->Ala113 (ligand)
chain: B1 chain with A26Q, D113A
B14: G-CSF analog Gln21->Ala21 (ligand)
chain: B1 chain with Q21A, A26Q
B15: G-CSF analog Glu20->Ala20 (ligand)
chain: B1 chain with E20A, A26Q
B16: G-CSF analog Asp110->Ala110 (ligand)
chain: B1 chain with A26Q, D110A
B17: G-CSF analog Lys17->Ala17 (ligand)
chain: B1 chain with K17A, A26Q
B18: G-CSF analog His53->Ala53 (ligand)
chain: B1 chain with A26Q, H53A
B19: G-CSF analog Glu47->Ala47 (ligand)
chain: B1 chain with A26Q, E47A
B20: G-CSF analog Gln121->Ala121 (ligand)
chain: B1 chain with A26Q, Q121A
B21: G-CSF analog His44->Lys44 (ligand)
chain: B1 chain with A26Q, H44K
B22: G-CSF analog Thr117->Ala117 (ligand)
chain: B1 chain with A26Q, T117A
B23: G-CSF analog Asp28->Ala28; Asp110->Ala110 (ligand)
chain: B1 chain with A26Q, D28A, D110A
B24: G-CSF analog Lys24->Ala24 (ligand)
chain: B1 chain with K24A, A26Q
B25: G-CSF analog Met127,138->Leu127,138 (ligand)
chain: B1 chain with A26Q, M127L, M138L

What follows are binders tested against T1, G-CSF receptor (natural G-CSF receptor, …) (assay: cell-based or functional assay).

% Normal G-CSF Activity (3H-thymidine uptake, mouse bone marrow cells)	Binder
51%	B1
110%	B2
0%	B3
81%	B4
100%	B5
10.8%	B6
75%	B7
100%	B8
31%	B9
0%	B10
110%	B11
147%	B12
0%	B13
9.6%	B14
0%	B15
29%	B16
70%	B17
8.3%	B18
0%	B19
100%	B20
70%	B21
9.7%	B22
20.6%	B23
0%	B24
98%	B25
